PMC3936712
Where two headings read alike, the source gives them in different places.

Columns and labels:
Assay in all cases: fluorescence anisotropy
[1] = target: T1, jRdRp (NS5 RdRp module, wt) (Japanese encephalitis virus strain …, UniProt O90417 2799-3432)
[2] = target: T1, jRdRp (NS5 RdRp module, wt); remark: listed apart in the source
[3] = target: T1, jRdRp (NS5 RdRp module, wt); remark: listed apart in the source

AUAAACUUCU (ssRNA) [10mer ssRNA (FR10)] was tested, and the Kd [1] was 39.3 ± 2.3 nM, the Kd [2] was 40.4 ± 2.1 nM and the Kd [3] was 33.9 ± 0.6 nM.
